This is an account of results in paper PMC11110392, “A first-in-class inhibitor of HSP110 to potentiate XPO1-targeted therapy in primary mediastinal B-cell lymphoma and classical Hodgkin lymphoma” (Journal of Experimental & Clinical Cancer Research : CR, 2024).

By Kd is commonly meant the equilibrium constant for the complex coming apart.

The target in this assay is T1, His-tagged HSP110 (recombinant) (UniProt Q92598 1-858, non-covalent RED-Tris-NTA 2nd generation dye on the His tag).
T1 construct: recombinant HSP110, OriGene TP307102; also called recombinant HSP110; TP307102; source: bought: OriGene (TP307102)
T1 sequence (Q92598 whole entry): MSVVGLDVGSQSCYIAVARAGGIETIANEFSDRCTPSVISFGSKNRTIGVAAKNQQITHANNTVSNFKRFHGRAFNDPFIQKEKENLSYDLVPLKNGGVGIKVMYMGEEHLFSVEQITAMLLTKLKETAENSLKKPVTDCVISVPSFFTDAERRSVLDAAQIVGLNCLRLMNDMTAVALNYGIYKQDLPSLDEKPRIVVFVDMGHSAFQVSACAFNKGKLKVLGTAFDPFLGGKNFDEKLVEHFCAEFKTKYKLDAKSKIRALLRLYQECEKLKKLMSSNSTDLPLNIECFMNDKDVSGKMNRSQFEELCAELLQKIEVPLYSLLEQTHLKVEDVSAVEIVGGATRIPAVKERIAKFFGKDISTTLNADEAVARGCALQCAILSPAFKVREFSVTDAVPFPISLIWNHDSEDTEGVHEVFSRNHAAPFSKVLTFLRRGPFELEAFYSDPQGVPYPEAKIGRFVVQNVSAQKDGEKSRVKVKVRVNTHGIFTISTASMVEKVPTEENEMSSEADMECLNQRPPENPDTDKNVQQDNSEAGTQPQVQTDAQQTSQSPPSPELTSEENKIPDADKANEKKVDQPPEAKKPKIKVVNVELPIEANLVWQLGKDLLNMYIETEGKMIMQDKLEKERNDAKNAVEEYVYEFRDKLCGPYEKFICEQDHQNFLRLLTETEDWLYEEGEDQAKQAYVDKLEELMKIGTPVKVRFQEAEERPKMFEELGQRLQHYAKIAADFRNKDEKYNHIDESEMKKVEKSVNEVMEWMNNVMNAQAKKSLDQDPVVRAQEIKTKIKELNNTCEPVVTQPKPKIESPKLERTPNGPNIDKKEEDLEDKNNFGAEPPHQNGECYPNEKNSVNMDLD
Put plainly: MST; Monolith NT.115; His-tagged HSP110 labelled with RED-Tris-NTA 2nd generation, fixed at 50 nM; STAT6 titrated from 2.39 µM to 0.07 nM. The settings on record: both partners purified.

B1: STAT6 (recombinant) (natural protein, UniProt P42226 1-847, looked up)
chain: MSLWGLVSKMPPEKVQRLYVDFPQHLRHLLGDWLESQPWEFLVGSDAFCCNLASALLSDTVQHLQASVGEQGEGSTILQHISTLESIYQRDPLKLVATFRQILQGEKKAVMEQFRHLPMPFHWKQEELKFKTGLRRLQHRVGEIHLLREALQKGAEAGQVSLHSLIETPANGTGPSEALAMLLQETTGELEAAKALVLKRIQIWKRQQQLAGNGAPFEESLAPLQERCESLVDIYSQLQQEVGAAGGELEPKTRASLTGRLDEVLRTLVTSCFLVEKQPPQVLKTQTKFQAGVRFLLGLRFLGAPAKPPLVRADMVTEKQARELSVPQGPGAGAESTGEIINNTVPLENSIPGNCCSALFKNLLLKKIKRCERKGTESVTEEKCAVLFSASFTLGPGKLPIQLQALSLPLVVIVHGNQDNNAKATILWDNAFSEMDRVPFVVAERVPWEKMCETLNLKFMAEVGTNRGLLPEHFLFLAQKIFNDNSLSMEAFQHRSVSWSQFNKEILLGRGFTFWQWFDGVLDLTKRCLRSYWSDRLIIGFISKQYVTSLLLNEPDGTFLLRFSDSEIGGITIAHVIRGQDGSPQIENIQPFSAKDLSIRSLGDRIRDLAQLKNLYPKKPKDEAFRSHYKPEQMGKDGRGYVPATIKMTVERDQPLPTPELQMPTMVPSYDLGMAPDSSMSMQLGPDMVPQVYPPHSHSIPPYQGLSPEESVNVLSAFQEPHLQMPPSLGQMSLPFDQPHPQGLLPCQPQEHAVSSPDPLLCSDVTMVEDSCLSQPVTAFPQGTWIGEDIFPPLLPPTEQDLTKLLLEGQGESGGGSLGAQPLLQPSHYGQSGISMSHMDLRANPSW
notes: recombinant STAT6, Abcam ab125625; also called recombinant STAT6; ab125625; source: bought: Abcam (ab125625)
For the molecule B1, the Kd amounted to 26.7 ± 12.3 nM.
